Results on 4 molecules are retold here after patent US20220098319A1 (SHANGHAI PHARMAEXPLORER, published 2022).

Assay [1] addresses T1, murine CD73 (on transfected CHOK1 cells) (mouse, UniProt Q61503 29-551).
T1 construct: whole, on cells; also called CHOK1-mCD73; mCD73
T1 sequence (looked up): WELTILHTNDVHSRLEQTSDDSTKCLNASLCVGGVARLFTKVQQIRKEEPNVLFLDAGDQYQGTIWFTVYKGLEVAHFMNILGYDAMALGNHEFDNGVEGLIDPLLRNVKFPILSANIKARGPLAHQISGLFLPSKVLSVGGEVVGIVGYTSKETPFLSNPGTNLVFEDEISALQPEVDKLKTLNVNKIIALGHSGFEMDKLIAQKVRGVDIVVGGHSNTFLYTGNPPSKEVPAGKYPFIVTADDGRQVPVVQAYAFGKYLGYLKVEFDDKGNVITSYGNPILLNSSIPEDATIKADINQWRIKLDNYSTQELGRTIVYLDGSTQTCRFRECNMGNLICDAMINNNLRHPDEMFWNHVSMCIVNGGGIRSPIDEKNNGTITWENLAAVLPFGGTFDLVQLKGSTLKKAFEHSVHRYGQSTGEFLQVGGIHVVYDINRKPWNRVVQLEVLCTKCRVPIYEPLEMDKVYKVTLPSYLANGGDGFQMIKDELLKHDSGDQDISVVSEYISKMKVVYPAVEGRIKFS
As to the kind of experiment: FACS on CHOK1-mCD73 cells.

Assay [2] concerns the target T2, cynomolgus monkey CD73 (on transfected CHOK1 cells) (cynomolgus monkey, UniProt A0A2K5V5U7 27-549).
T2 construct: whole, on cells; also called CHOK1-cCD73; CHOK1-CCD73
T2 sequence: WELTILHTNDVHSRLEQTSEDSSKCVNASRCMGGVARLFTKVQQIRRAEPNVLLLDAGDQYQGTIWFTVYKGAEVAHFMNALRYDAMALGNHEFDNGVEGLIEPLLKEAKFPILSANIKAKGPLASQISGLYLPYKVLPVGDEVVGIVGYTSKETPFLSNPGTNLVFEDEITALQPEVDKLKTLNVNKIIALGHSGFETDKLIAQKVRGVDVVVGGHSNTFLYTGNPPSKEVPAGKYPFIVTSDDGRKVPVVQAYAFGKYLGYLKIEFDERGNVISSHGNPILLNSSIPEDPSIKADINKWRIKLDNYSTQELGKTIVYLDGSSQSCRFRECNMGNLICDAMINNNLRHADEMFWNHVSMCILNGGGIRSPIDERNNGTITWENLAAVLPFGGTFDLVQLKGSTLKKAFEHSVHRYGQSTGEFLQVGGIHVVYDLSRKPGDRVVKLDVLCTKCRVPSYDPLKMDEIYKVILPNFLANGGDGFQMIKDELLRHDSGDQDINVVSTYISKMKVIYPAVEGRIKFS
As to the kind of experiment: FACS on CHOK1-cCD73 cells.

For assay [3], the target named is T3, human CD73 (full length, on transfected CHOK1 cells) (human, UniProt P21589 27-549).
T3 sequence (looked up): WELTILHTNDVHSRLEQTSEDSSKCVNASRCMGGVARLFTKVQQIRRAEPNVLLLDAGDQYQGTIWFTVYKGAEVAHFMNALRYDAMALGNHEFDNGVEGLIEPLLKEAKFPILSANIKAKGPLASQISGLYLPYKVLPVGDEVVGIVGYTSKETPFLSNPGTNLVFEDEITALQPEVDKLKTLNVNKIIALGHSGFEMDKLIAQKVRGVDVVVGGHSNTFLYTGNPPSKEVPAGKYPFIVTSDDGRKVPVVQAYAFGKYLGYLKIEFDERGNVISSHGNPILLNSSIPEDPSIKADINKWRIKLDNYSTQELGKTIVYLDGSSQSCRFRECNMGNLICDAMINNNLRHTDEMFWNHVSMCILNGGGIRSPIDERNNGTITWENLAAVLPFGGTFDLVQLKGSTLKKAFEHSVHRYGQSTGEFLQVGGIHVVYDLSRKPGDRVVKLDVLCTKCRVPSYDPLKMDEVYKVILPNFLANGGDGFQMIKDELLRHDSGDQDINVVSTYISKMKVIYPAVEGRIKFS
Briefly: cell-based or functional assay.

Assay [4] deals with T3, human CD73 (full length, on transfected …). Briefly: FACS on CHOK1-hCD73 cells. Here is the method:
The titration binding curve was produced by the following method:
The CHOK1 stable cell line transfected with human CD73 was expanded to a 75-90% confluence in a T-75 cell culture flask. The medium was aspirated, washed 1-2 times with PBS, and then treated with trypsin (Tryple express: Life technology) and cells were collected. The cells were washed with PBS buffer for 1-2 times. After counted, the cells were diluted with PBS to 1-2×10⁶ cells per ml, added with 1% fetal bovine serum (FBS) blocking solution, incubated on ice for 20-30 minutes, and then washed twice with HBSS by centrifugation. The collected cells were suspended with FACS buffer (PBS+2% FBS) to 2×10⁶ cells/ml, added to a 96-well FACS reaction plate at 100 microliters per well, and centrifuged at 300 g for 5 minutes to discard the supernatant. Anti-CD73 antibody was prepared with blocking solution to an initial concentration of 10 ug/ml and serially diluted at 8 points. 100 microliter per well of that antibody sample to be tested were added and incubated at 4° C. for 1-2 hours. […] The plate was washed 2-3 times with FACS buffer by centrifugation, added with 100 μl fixative solution (4% Paraformaldehyde) per well to suspend the cells. 5-10 minutes later, it was washed 1-2 times with FACS buffer by centrifugation. The cells were suspended with 100 microliters of FACS buffer, FACS (FACSCalibur, BD) was used for detection and the results were analyzed, as shown in FIG. 1 and Table 4.

Assay [5] has the same target. Briefly: cell-based or functional assay. This is another data set of the same source.
Assay [6] has the same target. Briefly: FACS on CHOK1-hCD73 cells.
For assay [7], the target named is T1, murine CD73 (on transfected CHOK1 cells). As to the kind of experiment: FACS on CHOK1-mCD73 cells. The source holds these as a separate data set.
In assay [8] the target is T2, cynomolgus monkey CD73 (on transfected …). Briefly: FACS on CHOK1-cCD73 cells. This is another data set of the same source.
For assay [9], the target named is T4, His-tagged CD73 extracellular domain protein (hCD73 ECD-His) (human, UniProt P21589 27-547).
T4 construct: Expressed in CHO cells from pTT5-hCD73 ECD-His6, purified on nickel column; also called hCD73 ECD-His6; human CD73 ECD
T4 sequence: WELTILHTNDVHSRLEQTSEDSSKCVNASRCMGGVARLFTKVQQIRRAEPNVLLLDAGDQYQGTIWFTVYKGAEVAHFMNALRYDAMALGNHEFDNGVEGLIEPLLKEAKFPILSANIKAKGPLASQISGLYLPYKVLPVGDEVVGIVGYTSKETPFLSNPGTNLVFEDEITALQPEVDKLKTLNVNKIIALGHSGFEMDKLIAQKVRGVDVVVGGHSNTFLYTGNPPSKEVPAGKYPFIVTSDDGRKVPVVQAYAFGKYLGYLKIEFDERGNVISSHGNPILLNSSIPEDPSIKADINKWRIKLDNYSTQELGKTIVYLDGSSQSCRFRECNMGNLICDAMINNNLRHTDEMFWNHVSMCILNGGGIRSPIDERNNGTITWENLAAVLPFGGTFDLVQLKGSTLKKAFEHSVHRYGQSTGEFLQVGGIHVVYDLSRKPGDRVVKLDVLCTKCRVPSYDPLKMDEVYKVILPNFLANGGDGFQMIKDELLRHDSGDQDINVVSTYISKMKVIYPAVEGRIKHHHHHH
Briefly: Octet BLI, antibody on AHC sensor, antigen 50-200 nM, 1:1 fit. An excerpt:
Octet Red 96 was selected as the test instrument, and AHC biosensor was selected as the test sensor in this experiment. Anti-human IgG Fc antibody has been immobilized on the AHC sensor, which can be used to directly capture the 15 antibodies in this experiment. Then the sensor was immersed in the analysis sample (antigen). There were five steps in this experiment: 1, Baseline (120 s) 2, Loading (capture antibody) (300 s) 3, Baseline (120 s) 4, Association (binding antigen) (180 s) 5, Dissociation (antigen dissociation) (1200 s). After the test was completed, the regeneration buffer (Glycine PH1.5) and the neutralization buffer (1*PBS buffer) were alternately immersed for 5 seconds, and the sensor was regenerated by a total of five cycles. The maximum number of sensor regeneration times is 10. The running buffer in this experiment is the sample diluent (1*PBS buffer containing 0.02% Tween20 and 0.1% BSA), that is, the buffer used in the Baseline step, the Dissociation step, and the blank analyte sample. Four sensors are used at one running in this experiment.
Sample treatment: all the antibodies were diluted to the working concentration of 10 ug/ml with sample diluent (1*PBS buffer containing 0.02% Tween20 and 0.1% BSA), and the analyte samples (antigens) were diluted to three working concentrations: 200 nM, 100 nM and 50 nM.
For data analysis, Octet Data Analysis (version 7.0) was used to calculate the response signal value (the signal of the coupled analyte sample minus the signal of the blank analyte sample), and a 1:1 binding model was used to fit the data.

Where two headings read alike, the source gives them in different places.

B1: mAb030 (clone 42A5A7), murine anti-CD73 antibody (antibody, V domains shown)
VH: DIQLQESGPGLVKPSQSLSLTCSVTGYSITSRYYWNWIRQFPGNKLEWMGYITYDDNNNYNPSLKNRISITRDTSKNQFFLKLNSVTPEDTATYYCARGGWDPFLYWGQGTLVTVSA
VL: DIQMTQSPASLSASVGETVTITCRASDNIYSYLAWYQQKQGKSLQLLVDSAKNLGEGVPSRFSGSGSGTQFYLKINSLQPEDFGVYYCQHYYGTPFTFGGGTKLELK
notes: Purified from hybridoma supernatant; also called antibody 030
Regarding B1, in assay [1], the binding result is on record as “no binding (tested: 10 ug/ml initial concentration)”. Besides, in assay [2], a half-maximal effect (EC50) was put at 0.4 nM and the “MAX MFI” value is 6310 MFI. In assay [3], the “Enzyme activity blocking assay, IC50” value worked out at 0.1 nM and the “Enzyme activity blocking assay, MAX % inhibition” value was 74.6%. In addition, in assay [4], the EC50 is 0.9 nM and the “MAX MFI” value was determined as 6440 MFI.

B2: mab032xhIgG1TM (clone 56F12H8), mouse-human chimeric anti-CD73 antibody (antibody, V domains shown)
VH: EVQLVESGGDLVKPGGSLKLSCAASGFTFSTHGMSWVRQTPDKRLEWVAIISSDRSDIDYTDNVKGRFTISRDNGKNTLYLQMSSLKSEDTAIYHCARHRGYDGFYYAMDYWGQGTSVTVSS
VL: DILMTQSPSSLTVTAGEKVTMSCRSSQSLLNSGNQKNYLTWYQQRPGRPPKLLIYWASTRISGVPDRFAGSGSGTDFTLTISIVQAEDLAVYYCQNDYSYPLTFGSGTKLELR
notes: also called mAb032 chimeric antibody
Regarding B2, in assay [5], the “Inhibition assay of enzyme activity, IC50” value was 0.3 nM and the “Inhibition assay of enzyme activity, MAX % inhibition” value was 65.1%. Besides, in assay [6], the midpoint of the response, the EC50, lay at 3.2 nM and the “MAX MFI fold” value worked out at 130 fold. Besides, the binding result in assay [7] is “no binding”. Besides, in assay [8], the 50% effective concentration (EC50) was determined as 2.6 nM and the “MAX MFI fold” value came out at 167 fold. For the same molecule, in assay [9], the Kd is 0.279 nM, the koff amounted to 1.95e-05 s⁻¹ and the kon is 70000 M⁻¹ s⁻¹.

B3: mAb032 (clone 56F12H8), murine anti-CD73 antibody (antibody, V domains shown)
VH: EVQLVESGGDLVKPGGSLKLSCAASGFTFSTHGMSWVRQTPDKRLEWVAIISSDRSDIDYTDNVKGRFTISRDNGKNTLYLQMSSLKSEDTAIYHCARHRGYDGFYYAMDYWGQGTSVTVSS
VL: DILMTQSPSSLTVTAGEKVTMSCRSSQSLLNSGNQKNYLTWYQQRPGRPPKLLIYWASTRISGVPDRFAGSGSGTDFTLTISIVQAEDLAVYYCQNDYSYPLTFGSGTKLELR
notes: Purified from hybridoma supernatant
Regarding B3, the binding result in assay [1] was “no binding (tested: 10 ug/ml initial concentration)”. Also, in assay [2], the EC50 is 0.7 nM and the “MAX MFI” value was 6050 MFI. In assay [3], the “Enzyme activity blocking assay, IC50” value was found to be 1.2 nM and the “Enzyme activity blocking assay, MAX % inhibition” value was found to be 66.9%. In addition, in assay [4], it took 2.6 nM to reach a half-maximal effect (EC50) and the “MAX MFI” value amounted to 7660 MFI.

B4: mab020xhIgG1TM (clone 24D6B4), mouse-human chimeric anti-CD73 antibody (antibody, V domains shown)
VH: EVQLQQSGPELVKPGASVKIPCKASGYTFTDYNMDWVKQRHGKSLEWIGDINPNNGGTVYNQKFKGKATLTVDKSSNTAYMELRSLTSEDTAVYYCARISGTGYWYFDVWGTGTTVTVSS
VL: DIQMTQSPASLSVSVGETVTITCRASENIYSNLAWYQQKQGKSPQLLVYGATNLADGVPSRFSGSDSGTQYSLKINSLQSEDFGSYYCQHFWGTPWTFGGGTKLEIK
notes: also called mAb020 chimeric antibody
Regarding B4, in assay [5], the “Inhibition assay of enzyme activity, IC50” value is 0.6 nM and the “Inhibition assay of enzyme activity, MAX % inhibition” value was 57.7%. Moreover, in assay [6], the EC50 was found to be 1.6 nM and the “MAX MFI fold” value is 126 fold. The binding result in assay [7] is “no binding”. Also, in assay [8], the EC50 was 0.7 nM and the “MAX MFI fold” value amounted to 124 fold. In [9], this molecule had a Kd of 0.0751 nM, a koff of 1.91e-05 s⁻¹ and a kon of 255000 M⁻¹ s⁻¹.

In general, EC50 refers to the concentration at which the effect is half-maximal. By Kd is commonly meant the equilibrium constant for the complex coming apart. Usually koff stands for the first-order rate constant of dissociation. As usually defined, the kon is the rate constant with which the complex forms.
